Here are results for two molecules from publication PMC5665922.

Experiment [1] has as its target Histidine-tagged INT-interacting MVP domains (His-iMVP), major vault protein domains 3 to 5. The experiment in a line: SPR; Biacore 3000, His-iMVP amine-coupled to CM5 (410, 1860 or 1240 RU), His-INT or variant injected, 25 °C, 50 mM PBS, 150 mM NaCl, pH 7.4; 1-to-1 Langmuir fit; apparent constants. In general terms: In SPR one partner is held on a chip, and binding of the other changes the refractive index at the surface.

For experiment [2] the target is unchanged. Description: SEC; His-iMVP and His-INT mixed at equimolar ratio (70 μM), overnight at 4 °C, Superdex 75 10/300 GL; band densities of peak fractions on SDS-PAGE. For orientation: SEC sorts molecules by how far they enter the pores of the column.

“And” between values parts separate entries of the source, which are not always exact repeats. Identical values can stand only once.

B1: Histidine-tagged vault-interacting domain of vault poly(ADP-ribose)-polymerase (His-INT) (domain or fragment)
chain: CIQHWQDAVPWTELLSLQTEDGFWKLTPELGLILNLNTNGLHSFLKQKGIQSLGVKGRECLLDLIATMLVLQFIRTRLEKEGIVFKSLMKMDDASISRNIPWAFEAIKQASEWVRRTEGQYPSICPRLELGNDWDSATKQLLGLQPISTVSPLHRVLHYSQG
The term koff denotes a measure of how fast the partners let go of each other. By kon is commonly meant the second-order rate constant of association. The term stoichiometry N denotes a count of units in the complex or per binding partner. Take B1: in experiment [1], the Kd is 262 nM, the T1/2 turned out to be 13.9 min, the koff was 0.0006 s⁻¹ and the kon is 2280 M⁻¹ s⁻¹. The stoichiometry N in experiment [1] amounted to 1. Moreover, the stoichiometry N in experiment [2] was 1 and 2.

B2: His-INTΔC15 (His-INT with 15 amino acids deleted at the C terminus) (domain or fragment)
chain: CIQHWQDAVPWTELLSLQTEDGFWKLTPELGLILNLNTNGLHSFLKQKGIQSLGVKGRECLLDLIATMLVLQFIRTRLEKEGIVFKSLMKMDDASISRNIPWAFEAIKQASEWVRRTEGQYPSICPRLELGNDWDSATKQLLGLQPI
On to B2, for which, in experiment [1], the Kd is 1800 nM, the T1/2 worked out at 9.4 min, the koff turned out to be 0.00089 s⁻¹ and the kon is 485 M⁻¹ s⁻¹. Besides, the stoichiometry N in experiment [1] was determined as 1.
